Read-outs that look alike come from different tables or passages of the source.
What was measured:
[1] = system: T1, APG05459.1 (Enterococcus sp.); experiment: cleavage_in_vitro
T1 sequence: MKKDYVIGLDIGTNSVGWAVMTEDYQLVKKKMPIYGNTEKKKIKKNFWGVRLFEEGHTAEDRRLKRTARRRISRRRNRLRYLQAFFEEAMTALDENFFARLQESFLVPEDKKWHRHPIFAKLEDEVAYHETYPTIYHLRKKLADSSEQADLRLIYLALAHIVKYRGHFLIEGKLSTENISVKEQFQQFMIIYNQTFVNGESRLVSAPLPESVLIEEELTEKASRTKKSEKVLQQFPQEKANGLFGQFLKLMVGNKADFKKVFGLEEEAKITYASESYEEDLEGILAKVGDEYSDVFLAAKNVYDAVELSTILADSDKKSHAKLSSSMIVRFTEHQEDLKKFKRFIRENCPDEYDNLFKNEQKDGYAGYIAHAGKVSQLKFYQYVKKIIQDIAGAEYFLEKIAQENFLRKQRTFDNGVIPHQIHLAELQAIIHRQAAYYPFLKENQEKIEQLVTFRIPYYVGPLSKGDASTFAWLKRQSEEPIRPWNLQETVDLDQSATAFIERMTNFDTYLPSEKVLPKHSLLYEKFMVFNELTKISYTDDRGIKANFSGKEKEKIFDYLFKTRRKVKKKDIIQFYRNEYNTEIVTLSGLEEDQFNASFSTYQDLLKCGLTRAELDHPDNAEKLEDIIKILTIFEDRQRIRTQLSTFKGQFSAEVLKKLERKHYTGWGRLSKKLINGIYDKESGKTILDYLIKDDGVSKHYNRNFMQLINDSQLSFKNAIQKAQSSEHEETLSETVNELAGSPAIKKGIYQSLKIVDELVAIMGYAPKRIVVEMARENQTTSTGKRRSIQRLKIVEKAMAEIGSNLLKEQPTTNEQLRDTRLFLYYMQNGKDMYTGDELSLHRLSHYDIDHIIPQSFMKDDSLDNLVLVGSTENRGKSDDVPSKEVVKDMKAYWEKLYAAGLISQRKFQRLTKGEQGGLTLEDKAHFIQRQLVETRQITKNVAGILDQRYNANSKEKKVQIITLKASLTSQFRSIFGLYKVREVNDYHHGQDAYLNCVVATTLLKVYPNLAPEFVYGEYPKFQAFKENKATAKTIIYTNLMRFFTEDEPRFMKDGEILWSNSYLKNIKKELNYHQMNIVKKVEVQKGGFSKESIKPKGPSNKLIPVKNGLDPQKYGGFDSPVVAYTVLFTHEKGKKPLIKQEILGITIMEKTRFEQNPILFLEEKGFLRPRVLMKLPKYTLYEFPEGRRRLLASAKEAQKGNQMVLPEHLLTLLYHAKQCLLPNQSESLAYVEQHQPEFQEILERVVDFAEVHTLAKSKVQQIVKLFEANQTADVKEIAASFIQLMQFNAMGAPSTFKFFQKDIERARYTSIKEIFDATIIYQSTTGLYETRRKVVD

[2] = system: T2, APG08290.1 (Bacillus sp.); experiment: cleavage_in_vitro
T2 sequence: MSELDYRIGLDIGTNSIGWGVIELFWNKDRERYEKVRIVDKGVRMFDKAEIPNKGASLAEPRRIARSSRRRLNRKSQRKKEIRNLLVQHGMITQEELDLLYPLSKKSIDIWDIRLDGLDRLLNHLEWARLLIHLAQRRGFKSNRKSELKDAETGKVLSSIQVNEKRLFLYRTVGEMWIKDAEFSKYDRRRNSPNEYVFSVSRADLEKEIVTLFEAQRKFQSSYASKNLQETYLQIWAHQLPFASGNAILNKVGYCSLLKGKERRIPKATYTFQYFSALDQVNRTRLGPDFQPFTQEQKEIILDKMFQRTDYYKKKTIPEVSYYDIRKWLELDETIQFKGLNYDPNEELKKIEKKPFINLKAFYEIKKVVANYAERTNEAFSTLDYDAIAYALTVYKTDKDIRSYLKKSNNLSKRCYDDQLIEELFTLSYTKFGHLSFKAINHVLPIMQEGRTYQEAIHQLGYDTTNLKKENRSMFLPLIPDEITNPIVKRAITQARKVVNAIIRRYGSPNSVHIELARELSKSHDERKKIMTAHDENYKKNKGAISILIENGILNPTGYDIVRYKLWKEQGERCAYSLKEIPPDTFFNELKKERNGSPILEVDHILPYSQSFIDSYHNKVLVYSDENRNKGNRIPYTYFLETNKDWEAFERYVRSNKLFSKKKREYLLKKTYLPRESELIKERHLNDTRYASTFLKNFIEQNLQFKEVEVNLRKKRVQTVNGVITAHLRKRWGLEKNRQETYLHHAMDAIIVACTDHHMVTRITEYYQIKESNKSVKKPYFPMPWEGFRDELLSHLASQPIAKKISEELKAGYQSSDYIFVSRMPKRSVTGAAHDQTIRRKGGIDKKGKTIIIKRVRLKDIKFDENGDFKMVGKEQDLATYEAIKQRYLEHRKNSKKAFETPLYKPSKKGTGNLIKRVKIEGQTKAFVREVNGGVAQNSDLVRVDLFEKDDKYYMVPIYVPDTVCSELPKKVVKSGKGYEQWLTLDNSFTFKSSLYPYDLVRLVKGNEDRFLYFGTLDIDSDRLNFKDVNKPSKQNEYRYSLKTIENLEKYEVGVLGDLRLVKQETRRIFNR

Sequence | activity [2] [% cleaved] | further results
GAGCGGACAGCAGCUUCCUAUAUCUCGUACNNNNNNNNNNNNNNNNNNNNNNNNNGUUUUAGAGUCAUGUUAAAGAACAUAGCAAGUUAAAAUAAGGUUUUAACCGUAAUCAACUGUAAAGUGGCGCUGUUUCGGCGCUUUUUUUGUUU / GAGCGGACAGCAGCTTCCTATAACTCGTAC / GTACGAGTTATAGGAAGCTGCTGTCCGCTC [Sequence 1 sgRNA for APG05459.1 ; target mismatch 8] |  | activity [1]: 51 % cleaved
GAGCGGACAGCAGCUUCCUAUAUCUCGUACNNNNNNNNNNNNNNNNNNNNNNNNNGUUUUAGAGUCAUGUUAAAGAACAUAGCAAGUUAAAAUAAGGUUUUAACCGUAAUCAACUGUAAAGUGGCGCUGUUUCGGCGCUUUUUUUGUUU / GAGCGGACTGCAGCTTCCTATATCTCGTAC / GTACGAGATATAGGAAGCTGCAGTCCGCTC [Sequence 1 sgRNA for APG05459.1 ; target mismatch 22] |  | activity [1]: 48 % cleaved
GAGCGGACAGCAGCUUCCUAUAUCUCGUACNNNNNNNNNNNNNNNNNNNNNNNNNGUCAUAGUUCCAUGAAAGCCAAAAGUGGCUUUGAUGUUUCUAUGAUAAGGGUUUCGGCCCGUGGCGUCGGGGAUCGCCUGCCCAUUCCGAUGGGCUUCUCCCCAUUUAUU / CAGCGGACAGCAGCTTCCTATATCTCGTAC / GTACGAGATATAGGAAGCTGCTGTCCGCTG [Sequence 1 sgRNA for APG08290.1 ; target mismatch 30] | 100 | 
GAGCGGACAGCAGCUUCCUAUAUCUCGUACNNNNNNNNNNNNNNNNNNNNNNNNNGUCAUAGUUCCAUGAAAGCCAAAAGUGGCUUUGAUGUUUCUAUGAUAAGGGUUUCGGCCCGUGGCGUCGGGGAUCGCCUGCCCAUUCCGAUGGGCUUCUCCCCAUUUAUU / GAGCGGACAGCAGCTTCCTATATCTCGAAC / GTTCGAGATATAGGAAGCTGCTGTCCGCTC [Sequence 1 sgRNA for APG08290.1 ; target mismatch 3] | 73 | 
GAGCGGACAGCAGCUUCCUAUAUCUCGUACNNNNNNNNNNNNNNNNNNNNNNNNNGUCAUAGUUCCAUGAAAGCCAAAAGUGGCUUUGAUGUUUCUAUGAUAAGGGUUUCGGCCCGUGGCGUCGGGGAUCGCCUGCCCAUUCCGAUGGGCUUCUCCCCAUUUAUU / GAGCGGACTGCAGCTTCCTATATCTCGTAC / GTACGAGATATAGGAAGCTGCAGTCCGCTC [Sequence 1 sgRNA for APG08290.1 ; target mismatch 22] | 100 | 
GAGCGGACAGCAGCUUCCUAUAUCUCGUACNNNNNNNNNNNNNNNNNNNNNNNNNGUCAUAGUUCCAUGAAAGCCAAAAGUGGCUUUGAUGUUUCUAUGAUAAGGGUUUCGGCCCGUGGCGUCGGGGAUCGCCUGCCCAUUCCGAUGGGCUUCUCCCCAUUUAUU / GAGCGGACAGCAGCTTCGTATATCTCGTAC / GTACGAGATATACGAAGCTGCTGTCCGCTC [Sequence 1 sgRNA for APG08290.1 ; target mismatch 13] | 28 | 
GAGCGGACAGCAGCUUCCUAUAUCUCGUACNNNNNNNNNNNNNNNNNNNNNNNNNGUCAUAGUUCCAUGAAAGCCAAAAGUGGCUUUGAUGUUUCUAUGAUAAGGGUUUCGGCCCGUGGCGUCGGGGAUCGCCUGCCCAUUCCGAUGGGCUUCUCCCCAUUUAUU / GAGCGGACAGCAGCTTCCTATAACTCGTAC / GTACGAGTTATAGGAAGCTGCTGTCCGCTC [Sequence 1 sgRNA for APG08290.1 ; target mismatch 8] | 0 | 
GAGCGGACAGCAGCUUCCUAUAUCUCGUACNNNNNNNNNNNNNNNNNNNNNNNNNGUCAUAGUUCCAUGAAAGCCAAAAGUGGCUUUGAUGUUUCUAUGAUAAGGGUUUCGGCCCGUGGCGUCGGGGAUCGCCUGCCCAUUCCGAUGGGCUUCUCCCCAUUUAUU / GAGCGGACAGCAGCTTCCTAAATCTCGTAC / GTACGAGATTTAGGAAGCTGCTGTCCGCTC [Sequence 1 sgRNA for APG08290.1 ; target mismatch 10] | 75 | 
GAGCGGACAGCAGCUUCCUAUAUCUCGUACNNNNNNNNNNNNNNNNNNNNNNNNNGUCAUAGUUCCAUGAAAGCCAAAAGUGGCUUUGAUGUUUCUAUGAUAAGGGUUUCGGCCCGUGGCGUCGGGGAUCGCCUGCCCAUUCCGAUGGGCUUCUCCCCAUUUAUU / GAGCGGACAGCACCTTCCTATATCTCGTAC / GTACGAGATATAGGAAGGTGCTGTCCGCTC [Sequence 1 sgRNA for APG08290.1 ; target mismatch 18] | 100 | 
GAGCGGACAGCAGCUUCCUAUAUCUCGUACNNNNNNNNNNNNNNNNNNNNNNNNNGUCAUAGUUCCAUGAAAGCCAAAAGUGGCUUUGAUGUUUCUAUGAUAAGGGUUUCGGCCCGUGGCGUCGGGGAUCGCCUGCCCAUUCCGAUGGGCUUCUCCCCAUUUAUU / GAGCGGACAGCAGCTTCCTATATCTGGTAC / GTACCAGATATAGGAAGCTGCTGTCCGCTC [Sequence 1 sgRNA for APG08290.1 ; target mismatch 5] | 0 | 
GAGCGGACAGCAGCUUCCUAUAUCUCGUACNNNNNNNNNNNNNNNNNNNNNNNNNGUCAUAGUUCCAUGAAAGCCAAAAGUGGCUUUGAUGUUUCUAUGAUAAGGGUUUCGGCCCGUGGCGUCGGGGAUCGCCUGCCCAUUCCGAUGGGCUUCUCCCCAUUUAUU / GAGCGGACAGCAGCTTCCTATATCTCGTAC / GTACGAGATATAGGAAGCTGCTGTCCGCTC [Sequence 1 sgRNA for APG08290.1 ; Sequence 1 target] |  | activity ([2]; PAM NNRNCC, NTS cut 4, TS cut 3, 1 nt 5' overhang (Table 3)): 95 % cleaved
GAGCGGACAGCAGCUUCCUAUAUCUCGUACNNNNNNNNNNNNNNNNNNNNNNNNNGUCAUAGUUCCAUGAAAGCCAAAAGUGGCUUUGAUGUUUCUAUGAUAAGGGUUUCGGCCCGUGGCGUCGGGGAUCGCCUGCCCAUUCCGAUGGGCUUCUCCCCAUUUAUU / GAGCGGACAGCAGCTTCCTATATCTCGTTC / GAACGAGATATAGGAAGCTGCTGTCCGCTC [Sequence 1 sgRNA for APG08290.1 ; target mismatch 2] | 0 | 
GAGCGGACAGCAGCUUCCUAUAUCUCGUACNNNNNNNNNNNNNNNNNNNNNNNNNGUCAUAGUUCCAUGAAAGCCAAAAGUGGCUUUGAUGUUUCUAUGAUAAGGGUUUCGGCCCGUGGCGUCGGGGAUCGCCUGCCCAUUCCGAUGGGCUUCUCCCCAUUUAUU / GAGCGGACAGCAGCTTCCTATATCTCGTAG / CTACGAGATATAGGAAGCTGCTGTCCGCTC [Sequence 1 sgRNA for APG08290.1 ; target mismatch 1] | 0 | 
GAGCGGACAGCAGCUUCCUAUAUCUCGUACNNNNNNNNNNNNNNNNNNNNNNNNNGUCAUAGUUCCAUGAAAGCCAAAAGUGGCUUUGAUGUUUCUAUGAUAAGGGUUUCGGCCCGUGGCGUCGGGGAUCGCCUGCCCAUUCCGAUGGGCUUCUCCCCAUUUAUU / GAGCGGACAGCAGCTTCCTATATCTCGTAC / GTACGAGATATAGGAAGCTGCTGTCCGCTC |  | activity ([2]; incompatible PAM): 0 % cleaved

— patent publication US20250283117, “RNA-GUIDED NUCLEASES AND ACTIVE FRAGMENTS AND VARIANTS THEREOF AND METHODS OF USE” (Life Edit Therapeutics, Inc., published 2025)
